According to PMC6495647, “Purification and interactions of the MucA’ and MucB proteins constituting the DNA polymerase RI”:

Assays:
[1] = molecular target: T1, MucA' (plasmid pKM101 (expressed in E. coli …, UniProt Q79BK8 26-146)); assay: SPR; MucA' alone; SPR (BIAcore 2000, SA chip): 20 mM HEPES pH 8.0, 50 mM K-glutamate, 10 mM Mg acetate, 5% glycerol, 0.1 mM EDTA, 2 mM DTT, 0.05% Surfactant P20 (1% P20 in MucB sample); temperature not stated; conditions: protein: recombinant; tags: none stated (pYG8506, pET-16b based); chain copies: 2; label: 5'-biotin; single strand
T1 sequence: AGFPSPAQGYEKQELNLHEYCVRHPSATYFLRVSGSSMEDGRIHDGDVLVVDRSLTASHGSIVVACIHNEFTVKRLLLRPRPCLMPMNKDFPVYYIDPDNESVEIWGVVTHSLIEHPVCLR

[2] = molecular target: T2, MucB (plasmid pKM101 (expressed in E. coli …, UniProt Q79BK7 1-421)); assay: SPR; MucB 0.26 uM alone; 10 mM Mg acetate; SPR (BIAcore 2000, SA chip): 20 mM HEPES pH 8.0, 50 mM K-glutamate, 10 mM Mg acetate, 5% glycerol, 0.1 mM EDTA, 2 mM DTT, 0.05% Surfactant P20 (1% P20 in MucB sample); temperature not stated; conditions: protein: recombinant; tags: none stated (untagged construct pYG8512); label: 5'-biotin; single strand
T2 sequence: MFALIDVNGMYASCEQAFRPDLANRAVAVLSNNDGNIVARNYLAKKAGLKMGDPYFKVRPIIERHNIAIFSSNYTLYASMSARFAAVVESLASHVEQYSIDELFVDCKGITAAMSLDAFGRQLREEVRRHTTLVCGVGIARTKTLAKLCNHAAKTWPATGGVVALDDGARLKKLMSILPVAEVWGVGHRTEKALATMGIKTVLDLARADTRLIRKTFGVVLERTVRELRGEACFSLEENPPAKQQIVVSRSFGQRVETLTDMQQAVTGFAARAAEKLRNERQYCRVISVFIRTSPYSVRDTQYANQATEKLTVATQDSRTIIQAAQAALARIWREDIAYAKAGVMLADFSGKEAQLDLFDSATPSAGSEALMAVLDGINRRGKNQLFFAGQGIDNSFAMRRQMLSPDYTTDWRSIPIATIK

B1: 73-mer ssDNA oligonucleotide (ssDNA)
DNA: GCGGCGGTTGAGTAGCTCTTCTTCCAGCACGTTTTCGCCGATAATACCGGGATCGACCACGCCATCCATTACC
[1]
  binding result: no binding
[2]
  binding result: binds
